Data as given in paper PMC7577971.

Target: CR3022/S1 complex (one monomer of the spike ectodomain with one bound CR3022 Fab) (SARS-CoV-2 | human) (UniProt P0DTC2)
Assay: cryo-EM structure

## CR3022/S1 complex (one monomer of the spike ectodomain with one bound CR3022 Fab) (from UniProt P0DTC2 14-1208)
  stoichiometry N: 2
